Assay [1] concerns the target T1, full-length beta-Catenin (Uniprot ID P35222) (Homo sapiens (Human), UniProt P35222 2-781).
T1 construct: also called bCat; B-Catenin
T1 sequence: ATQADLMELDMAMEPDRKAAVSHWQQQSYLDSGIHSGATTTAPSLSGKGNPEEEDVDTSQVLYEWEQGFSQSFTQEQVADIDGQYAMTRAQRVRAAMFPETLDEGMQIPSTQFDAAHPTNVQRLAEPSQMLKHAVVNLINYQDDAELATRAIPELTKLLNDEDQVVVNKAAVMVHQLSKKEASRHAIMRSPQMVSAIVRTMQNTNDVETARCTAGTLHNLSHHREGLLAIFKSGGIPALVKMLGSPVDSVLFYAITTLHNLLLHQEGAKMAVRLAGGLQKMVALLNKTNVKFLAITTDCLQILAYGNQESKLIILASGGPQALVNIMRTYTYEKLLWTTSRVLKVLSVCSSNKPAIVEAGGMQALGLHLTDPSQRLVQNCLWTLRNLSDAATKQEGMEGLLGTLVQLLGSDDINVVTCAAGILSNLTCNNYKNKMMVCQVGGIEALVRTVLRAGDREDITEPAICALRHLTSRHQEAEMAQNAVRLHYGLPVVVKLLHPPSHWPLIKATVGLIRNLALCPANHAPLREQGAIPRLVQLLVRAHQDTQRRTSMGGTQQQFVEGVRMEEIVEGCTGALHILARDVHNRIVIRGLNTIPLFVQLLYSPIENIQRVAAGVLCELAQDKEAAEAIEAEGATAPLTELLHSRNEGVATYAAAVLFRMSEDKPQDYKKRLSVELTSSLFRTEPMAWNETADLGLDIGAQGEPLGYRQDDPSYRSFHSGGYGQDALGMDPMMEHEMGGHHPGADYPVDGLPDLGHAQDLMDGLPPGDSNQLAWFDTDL
In words: fluorescence polarization competition, displacement of 5FAM-TCF4 10-53 from full-length beta-catenin. The procedure: (§1) The plate was incubated protected from light for 60 minutes at 20° C. prior to read. Reads were performed on a CLARIOstar plate reader (BMG Labtech) in duplicate, and data were fitted to a 1:1 binding model with hill slope using an in-house script. All provided concentrations are final concentrations.

Assay [2] deals with T2, full-length beta-Catenin (Uniprot ID P35222) (Homo sapiens (Human), UniProt P35222 1-781).
T2 construct: also called bCat
T2 sequence: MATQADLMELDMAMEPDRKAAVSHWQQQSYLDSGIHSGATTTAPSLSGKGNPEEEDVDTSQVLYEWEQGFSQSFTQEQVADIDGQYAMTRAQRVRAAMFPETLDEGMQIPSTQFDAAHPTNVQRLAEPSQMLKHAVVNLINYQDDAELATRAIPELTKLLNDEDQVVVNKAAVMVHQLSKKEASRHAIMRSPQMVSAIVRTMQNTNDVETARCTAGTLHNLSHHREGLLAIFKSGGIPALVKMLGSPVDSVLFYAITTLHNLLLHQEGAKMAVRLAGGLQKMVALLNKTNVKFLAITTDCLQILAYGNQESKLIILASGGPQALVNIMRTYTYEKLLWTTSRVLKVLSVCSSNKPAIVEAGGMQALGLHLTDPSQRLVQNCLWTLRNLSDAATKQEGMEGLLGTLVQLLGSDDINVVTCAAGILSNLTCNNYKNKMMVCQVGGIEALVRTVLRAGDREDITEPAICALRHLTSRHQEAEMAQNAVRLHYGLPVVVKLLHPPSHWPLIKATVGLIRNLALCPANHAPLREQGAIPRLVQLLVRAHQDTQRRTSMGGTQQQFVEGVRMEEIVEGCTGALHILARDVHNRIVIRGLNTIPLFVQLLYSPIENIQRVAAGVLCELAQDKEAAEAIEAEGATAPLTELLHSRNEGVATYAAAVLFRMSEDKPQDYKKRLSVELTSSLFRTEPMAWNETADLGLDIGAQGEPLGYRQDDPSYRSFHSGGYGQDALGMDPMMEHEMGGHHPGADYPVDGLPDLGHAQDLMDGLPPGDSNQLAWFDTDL
In words: fluorescence polarization competition against 5FAM-TCF4(10-53) on full-length beta-catenin. The procedure: as §1

Assay [3] addresses T3, Bcat-Halo (UniProt P35222 1-781).
T3 construct: also called beta-catenin HaloTag fusion; not shown: HaloTag
T3 sequence (looked up): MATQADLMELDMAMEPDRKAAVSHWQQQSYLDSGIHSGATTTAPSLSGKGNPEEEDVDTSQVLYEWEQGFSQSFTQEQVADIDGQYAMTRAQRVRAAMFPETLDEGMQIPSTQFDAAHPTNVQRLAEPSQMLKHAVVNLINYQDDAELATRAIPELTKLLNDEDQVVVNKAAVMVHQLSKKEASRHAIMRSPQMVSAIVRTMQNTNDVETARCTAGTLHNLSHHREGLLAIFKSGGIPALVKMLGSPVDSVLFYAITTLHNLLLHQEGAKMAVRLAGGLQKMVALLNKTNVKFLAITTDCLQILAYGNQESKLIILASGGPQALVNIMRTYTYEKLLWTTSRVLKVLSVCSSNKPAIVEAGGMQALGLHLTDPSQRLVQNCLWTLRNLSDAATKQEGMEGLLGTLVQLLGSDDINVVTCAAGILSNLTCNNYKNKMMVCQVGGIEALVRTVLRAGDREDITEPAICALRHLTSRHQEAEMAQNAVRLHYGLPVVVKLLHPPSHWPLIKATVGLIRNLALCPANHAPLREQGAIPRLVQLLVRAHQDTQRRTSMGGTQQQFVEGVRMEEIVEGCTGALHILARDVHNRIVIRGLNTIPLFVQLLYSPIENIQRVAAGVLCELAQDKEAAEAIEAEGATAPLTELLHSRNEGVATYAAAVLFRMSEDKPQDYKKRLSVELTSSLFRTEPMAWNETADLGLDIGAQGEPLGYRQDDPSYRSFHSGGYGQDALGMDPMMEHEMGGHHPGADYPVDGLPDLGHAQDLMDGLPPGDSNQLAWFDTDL
Kind of assay: NanoBRET Abs IC50 in HEK293 cells; Bcat-Halo, competitor TCF4-Luc.

The target of assay [4] is T4, full-length beta-Catenin (Uniprot ID P35222) (Homo sapiens (Human), UniProt P35222 1-781).
T4 construct: also called bCat; B-Catenin
T4 sequence: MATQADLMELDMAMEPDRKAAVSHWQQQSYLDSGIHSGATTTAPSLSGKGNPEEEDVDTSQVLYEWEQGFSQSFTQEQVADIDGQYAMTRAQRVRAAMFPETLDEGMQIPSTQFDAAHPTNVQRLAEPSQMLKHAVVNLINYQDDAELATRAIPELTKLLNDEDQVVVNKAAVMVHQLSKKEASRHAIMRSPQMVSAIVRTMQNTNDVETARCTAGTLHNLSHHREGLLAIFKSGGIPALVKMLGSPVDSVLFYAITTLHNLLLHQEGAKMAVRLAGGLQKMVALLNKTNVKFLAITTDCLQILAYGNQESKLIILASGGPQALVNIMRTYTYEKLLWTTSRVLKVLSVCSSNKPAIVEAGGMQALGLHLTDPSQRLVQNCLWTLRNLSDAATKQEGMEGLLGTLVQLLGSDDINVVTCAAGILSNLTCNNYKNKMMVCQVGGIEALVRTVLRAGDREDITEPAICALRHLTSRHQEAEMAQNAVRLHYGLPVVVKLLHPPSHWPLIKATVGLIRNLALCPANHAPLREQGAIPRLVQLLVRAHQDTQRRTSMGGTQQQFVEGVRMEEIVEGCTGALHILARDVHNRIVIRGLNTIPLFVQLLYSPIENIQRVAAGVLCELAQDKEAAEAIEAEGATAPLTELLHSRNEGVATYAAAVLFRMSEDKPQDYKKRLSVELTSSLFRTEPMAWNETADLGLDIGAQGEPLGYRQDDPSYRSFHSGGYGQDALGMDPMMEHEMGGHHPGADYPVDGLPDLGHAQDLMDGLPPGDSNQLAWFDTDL
In words: fluorescence polarization competition; full-length beta-catenin, competitor 5FAM-TCF4(10-53) probe. The method in brief: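 Plate incubated 60 minutes at 20° C. protected from light before reading. Concentrations given are final.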
(In general: Fluorescence polarisation rises when a labelled molecule tumbles more slowly, as on binding a larger partner.)

Starred links: 1 amine or outer side, 2 acyl side, 3 side chain; linkers in the order of their positions; H or OH if unused. Positions of bridges follow the written chain, without caps; N, C: chain ends. Non-standard residues stand in square brackets, D forms with d. Primed or numbered codes have the meaning given here. B5(10) = 2-amino-2-(pent-4-en-1-yl)hept-6-enoic acid, bis(4-pentenyl)glycine, stitching residue bearing both staples, C=CCCCC(CCCC=C)(N[*:1])C(=O)[*:2]; PyrS2(3) = (S)-3-amino-1-((pent-4-en-1-yloxy)carbonyl)pyrrolidine-3-carboxylic acid, stapling residue, C=CCCCOC(=O)N1CC[C@@](N[*:1])(C(=O)[*:2])C1; B5(16) = 2-amino-2-(pent-4-en-1-yl)hept-6-enoic acid = 2,2-bis(4-pentenyl)glycine (stitching residue), C=CCCCC(CCCC=C)(N[*:1])C(=O)[*:2]; PyrS2 = (S)-3-amino-1-((pent-4-en-1-yloxy)carbonyl)pyrrolidine-3-carboxylic acid, C=CCCCOC(=O)N1CC[C@@](N[*:1])(C(=O)[*:2])C1; Phe(2-Cl) = N[C@@H](Cc1ccccc1Cl)C(=O)O; Bta = N[C@@H](Cc1csc2ccccc12)C(=O)O; αAllylPro = C=CC[C@@]1(C(=O)O)CCCN1; tBuAla = CC(C)(C)C[C@H](N)C(=O)O; S8 = C=CCCCCCC[C@](C)(N)C(=O)O; R5 = C=CCCC[C@@](C)(N)C(=O)O

B1: I-1183 (peptide)
peptide: Ac-PD[tBuAla][R5]DDAAFN[PyrS2(3)][Phe(2-Cl)][Bta]Q-NH2
modifications: staple 4-11
notes: Stapled peptide, one staple. '2C1F' as printed (2ClF)
In the case of B1, in assay [1], the IC50 stood at 409 nM.

B2: I-1287 (peptide)
peptide: Ac-[αAllylPro]NA[B5(10)]DTAAFL[PyrS2]F[Bta]Q-NH2
modifications: staple 1-4, 4-11; not fully specified; printed as Ac-PL3-Asn-Ala-B5-Asp-Thr-Ala-Ala-Phe-Leu-PyrS2-Phe-BztA-Gln-NH2
notes: Stapled peptide
For the molecule B2, the IC50 in assay [2] stood at 10 µM.

B3: I-654 (peptide)
peptide: Ac-[αAllylPro]DI[B5(16)]DEQAFQ[S8]F[Bta]Q-NH2
modifications: staple 1-4, 4-11
notes: Stapled peptide
B3 displayed an IC50 in assay [3] of 15 µM.

B4: I-662 (peptide)
peptide: XDIXDEASFQXFXQ
modifications: not fully specified; Ac-PL3-Asp-Ile-B5-Asp-Glu-Ala-Ser-Phe-Gln-S8-Phe-BztA-Gln-NH2; N-terminal acetyl, C-terminal amide; PL3(1), B5(4), S8(11) stapled by olefin metathesis (1-4 and 4-11); BztA at 13
notes: Stapled peptide
Consider B4, for which the results for the IC50 in assay [3] and in assay [4] were 16.1 µM and 26 nM, respectively.

Usually IC50 stands for the concentration needed to halve the response being measured.

Source of the values: US20240116985A1 (published 2024).
